Assay results from patent US7329737 (DYAX, dated 2008).

biological target: T1, hK1 (human tissue kallikrein 1), recombinant (human, UniProt P06870 25-262); assay: SPR
T1 construct: Expressed in P. pastoris from KLK1 cDNA and purified; enzymatically active; also called KLK1; Recombinant (Pichia) Kallikrein

| Kd | koff | kon | Binder |
| --- | --- | --- | --- |
| 13.7 nM | 0.00483 s⁻¹ | 352000 M⁻¹ s⁻¹ | M0119-B09 (Fab, V domains shown) VH: EVQLLESGGGLVQPGGSLRLSCAASGFTFSWYWMYWVRQAPGKGLEWVSVIGSSGGVTKYADSVKGRFTISRDNSKNTLYLQMNSLRAEDTATYYCARGPYRGYFDYWGQGTLVTVSS VL: DIQMTQSPATLSVSPGEGATLSCRASQSVGNSLAWYQQKPGQAPRVLVYGASTRASGIPARFSGSGSVTEFTLTISSLQSEDFAVYYCQEYNKWPITFGQGTRLERKR |
| 10.6 nM | 0.00988 s⁻¹ | 931000 M⁻¹ s⁻¹ | M0103-A03 (Fab, V domains shown) VH: EVQLLESGGGLVQPGGSLRLSCAASGFTFSHYPMSWVRQAPGKGLEWVSYIRSGGYTTYADSVKGRFTISRDNSKNTLYLQMNSLRAEDTAVYYCARERVFCSGGRCGSYFDYWGQGTLVTVSS VL: DIQMTQSPSSVSASVGDRVTITCRASQDVRRFLAWYQQKPGKAPKLLIYAASSLQSGVPSRFSGSGSGTDFTLTISSLQPEDFATYYCQQANSFPITFGQGTRLEIKR |
| 12.5 nM | 0.000829 s⁻¹ | 66400 M⁻¹ s⁻¹ | M0138-B06 (Fab, V domains shown) VH: EVQLLESGGGLVQPGGSLRLSCAASGFTFSPYTMSWVRQAPGKGLEWVSGIYPSGGETWYADSVKGRFTISRDNSKNTLYLQMNSLRAEDTAVYYCAKNINLRYDILTGYFDFWGQGTMVTVSS VL: DIQMTQSPSSVSASVGDRVTITCRASQGISSWLAWYQQKPGKAPKLLIYAASSLQSGVPSRFSGSGSGTDFTLTISSLQPEDFATYYCQQANSFPLTFGGGTKVEIKR |
| 13.2 nM | 0.00796 s⁻¹ | 605000 M⁻¹ s⁻¹ | M0099-E11 (Fab, V domains shown) VH: EVQLLESGGGLVQPGGSLRLSCAASGFTFSHYTMVWVRQAPGKGLEWVSSIYSSGGRTNYADSVKGRFTISRDNSKNTLYLQMNSLRAEDTAVYYCARIVVVPSAQFYFYYGMDVWGQGTTVTVSS VL: DIQMTQSPSTLSASVGDRVTITCRASQSISNWLAWYQQKPGRAPKLLIYKASTLESGVPSRFSGSGSGTEFTLTISSLQPDDFATYYCQHYNSYSLFGQGTKLEIKR |
| 10.9 nM | 0.00523 s⁻¹ | 481000 M⁻¹ s⁻¹ | M0112-C02 (Fab, V domains shown) VH: EVQLLESGGGLVQPGGSLRLSCAASGFTFSNYYMLWVRQAPGKGLEWVSYIRSSGGSTRYADSVKGRFTISRDNSKNTLYLQMNSLRAEDTAVYYCAKPTVDGAFDYWGQGTLVTVSS VL: DIQMTQSPGTLSLSPGDRATLSCRASQSVSSNYLAWYQQKPGQAPRLLIYGASSRATGIPDRFSGSGSGTDFTLTISRLEPEDFGVYYCQQFGSSLFTFGPGTKVNIKR |
| 14.2 nM | 0.00345 s⁻¹ | 243000 M⁻¹ s⁻¹ | M0117-A12 (Fab, V domains shown) VH: EVQLLESGGGLVQPGGSLRLSCAASGFTFSNYKMSWVRQAPGKGLEWVSGIYPSGGLTQYADSVKGRFTISRDNSKNTLYLQMNSLRAEDTAVYYCAKVGVWYGMDVWGQGTTVTVSS VL: DIQMTQSPGTLSLSPGDRATLSCRASQSVGSDYLAWYQQKPGQAPRLLIYGASSRATGIPDRFSGSGSGTDFTLTISRLEPEDFAVYYCQQYGSSLYTFGQGTKLEIKR |
| 13.9 nM | 0.00815 s⁻¹ | 585000 M⁻¹ s⁻¹ | M0097-E07 (Fab, V domains shown) VH: EVQLLESGGGLVQPGGSLRLSCAASGFTFSWYQMMWVRKAPGKGLEWVSYIRSSGGKTDYADSVKGRFTISRDNSKNTLYLQMNSLRAEDTAVYYCARVGVWYGMDVWGQGTTVTVSS VL: DIQMTQSPSSLSASVGDRVTITCRASQSISSYLSWFQQRPGKAPKLLIYSASNLQSGVPLRFSGSGSGTDFTLTISSLQPEDFATYYCQQIYRTPLTFGGGTKVEIKR |
| 12.7 nM | 1170 s⁻¹ | – | M0111-B02 (Fab, V domains shown) VH: EVQLLESGGGLVQPGGSLRLSCAASGFTFSKYWMAWVRQAPGKGLEWVSVIYPSGGQTKYADSVKGRFTISRDNSKNTLYLQMNSLRAEDTAVYYCTLMRYGDRFDYWGQGTLVTVSS VL: AQYELTQDPAVSVALGQTVRITCQGDSLRSYYASWYQQKPGQAPVLVIYSKSNRPSGIPDRFSGSSSGSTASLTITGAQAEDEADYYCNSRDSSGNHLVFGGGTKLTVL |

Continued, binder first:

| Binder | Kd | koff | kon |
| --- | --- | --- | --- |
| M0092-B12 (Fab, V domains shown) VH: EVQLLESGGGLVQPGGSLRLSCAASGFTFSQYLMAWVRQAPGKGLEWVSSIYPSGGNTNYADSVKGRFTISRDNSKNTLYLQMNSLRAEDTAVYYCARDRSIVPYSSSWYMPRDYYYGMDVWGQGTTVTVSS VL: DIQMTQSPSSLSASVGDRVTITCRASQGISNYLAWYQQKPGKVPKLLIYAASTLQSGVPSRFSGSGSGTDFTLTISSLQPEDFATYYCQQSYSTPYTFGQGTKLEVRR | 12.1 nM | 0.00171 s⁻¹ | 141000 M⁻¹ s⁻¹ |
| M0122-H04 (Fab, V domains shown) VH: EVQLLESGGGLVQPGGSLRLSCAASGFTFSRYAMAWVRQAPGKGLEWVSSIGSSGGVTKYADSVKGRFTISRDNSKNTLYLQMNSLRAEDTAVYYCAAPRGRYYYDSSGYYYGGVFDYWGQGTLVTVSS VL: AQYELTQPRSVSGSPGQSVTISCTGTSSDVGGFNYVSWYQQHPGKAPKLMIYDVSKRPSGVPDRFSGSKSGTTASLTISGLQADDEADYYCCSYTGNYTYVFGTGTKVTVLG | 11.8 nM | 0.000802 s⁻¹ | 68200 M⁻¹ s⁻¹ |
| M0108-C10 (Fab, V domains shown) VH: EVQLLESGGGLVQPGGSLRLSCAASGFTFSRYVMAWVRQAPGKGLEWVSVIRPSGGKTLYADSVKGRFTISRDNSKNTLYLQMNSLRAEDTAVYYCARVAGRVGVPATKKNWFDPWGQGTLVTVSS VL: AQSVLTQPASVSGSPGQSITISCTGTSSDVGGYNYVSWYQQHPGQPPKLIIYEVSNRASGVSNRFSGSKFGNTASLTISGLQSEDEADYHCSSYTSSTTLLFGGGTRLTVLG | 12.2 nM | 0.00431 s⁻¹ | 353000 M⁻¹ s⁻¹ |
| M0102-A04 (Fab, V domains shown) VH: EVQLLESGGGLVQPGGSLRLSCAASGFTFSHYVMNWVRQAPGKGLEWVSRIYPSGGVTVYADSVKGRFTISRDNSKNTLYLQMNSLRAEDTAVYYCARGYGMDVWGQGTMVTVSS VL: AQSELTQPPSASGTPGQRVTISCSGSSSNIGSNYVYWYQQYPGTVPKLLIHSNNQRPSGVPDRFSGPKSGTSASLAISGLRSEDEADYYCATWDNSLSAWVFGGGTKLTVLR | 13.3 nM | 0.00435 s⁻¹ | 327000 M⁻¹ s⁻¹ |
| M0099-C12 (Fab, V domains shown) VH: EVQLLESGGGLVQPGGSLRLSCAASGFTFSRYAMHWVRQAPGKGLEWVSSIWPSGGATFYADSVKGRFTISRDNSKNTLYLQMNSLRAEDTAVYYCATSPTLNAFHIWGQGTMVTVSS VL: AQSVLTQPASVSGSPGQSITISCTGTTSDVGGYKYVSWYQHHPGKVPKLIIYEVNHRPSGVSHRFSGSKSGNTASLIISALQAEDEADYYCYSYTSDSTPYVFGTGTKVTVL | 13 nM | 0.00461 s⁻¹ | 354000 M⁻¹ s⁻¹ |
| M0103-F07 (Fab, V domains shown) VH: EVQLLESGGGLVQPGGSLRLSCAASGFTFSLYAMHWVRQAPGKGLEWVSSIRPSGGLTKYADSVKGRFTISRDNSKNTLYLQMNSLRAEDTAVYYCARVGVWYGMDVWGQGTTVTVSS VL: AQSALTQPASVSGSPGQSITISCTGTSNDIGRTNYVSWYRQDPGRAPKLILFEVSNRPSGISNRFSASKSGSTASLTISGLQADDESDYYCSSCTTAPVCVFGNGTRVTVLG | 13.2 nM | 0.00743 s⁻¹ | 564000 M⁻¹ s⁻¹ |
| M0099-A09 (Fab, V domains shown) VH: EVQLLESGGGLVQPGGSLRLSCAASGFTFSRYAMFWVRQAPGKGLEWVSSISPSGGKTRYADSVKGRFTISRDNSKNTLYLQMNSLRAEDTAVYYCARGGGTALDYWGQGTLVTVSS VL: DIQMTQSPGTLSLSPGERATLSCRASQSVYSSYLAWYQQKPGQAPRLLIYAASNRAIGIPDRFSGSGSGTDFTLTISSMQPEDFATYYCQQSYSTPRFGQGTKLEIKR | 10.7 nM | 0.00285 s⁻¹ | 267000 M⁻¹ s⁻¹ |
| M0125-C04 (Fab, V domains shown) VH: EVQLLESGGGLVQPGGSLRLSCAASGFTFSHYVMDWVRQAPGKGLEWVSSIYPSGGWTRYADSVKGRFTISRDNSRNTLYLQMNSLRAEDTAVYYCARRGQWLVLDYWGQGTLVTVSS VL: AQSELTQPASVSGSPGQSITISCAGTSSDLGGYDYVSWYQQYPGKAPKLIIYQVGRRPSGVSNRFSGSKSGNTASLTISGLQTEDEADYYCSSYTSSRTRVFGGGTRVTVLG | 11.2 nM | 0.00536 s⁻¹ | 478000 M⁻¹ s⁻¹ |
| M0096-E11 (Fab, V domains shown) VH: EVQLLESGGGLVQPGGSLRLSCAASGFTFSHYLMYWVRQAPGKGLEWVSSIYPSGGFTAYADSVKGRFTISRDNSKNTLYLQMNSLRAEDTAVYYCARRGVYGTFDIWGQGTMVTVSS VL: DIQMTQSPLSLSASVGDRVTMTCRASQTISSYLNWYQQKPGKAPKLLIYTTSSLQSGVPSRFSGSGSGTEFTLTISSLQPEDFATYYCQQSHSSPTFGGGTKVEIKR | 10.1 nM | 0.00836 s⁻¹ | 827000 M⁻¹ s⁻¹ |
| M0105-F02 (Fab, V domains shown) VH: EVQLLESGGGLVQPGGSLRLSCAASGFTFSRYWMAWVRQAPGKGLEWVSSIGPSGGSTKYADSVKGRFTISRDNSKNTLYLQMNSLRAEDTAVYYCARTARWLSFDYWGQGTLVTVSS VL: DIQMTQSPSTLSASVGDRVTITCRASQSISSWLAWYQQKPGEAPKLLIYAASSLRNGVPSRFIGSGSGTDFTLTISSLQPEDFATYYCQQSYSTPPTFGGGTKVEIKR | 10.9 nM | 0.0103 s⁻¹ | 947000 M⁻¹ s⁻¹ |
| M0129-B09 (Fab, V domains shown) VH: EVQLLESGGGLVQPGGSLRLSCAASGFTFSRYWMHWVRQAPGKGLEWVSSIGPSGGVTKYADSVKGRFTISRDNSKNTLYLQMNSLRAEDTAVYYCARHGSWGGMDVWGQGTTVTVSS VL: DIQMTQSPSFLSASVGDRVTITCRASQGISSYLAWYQQKPGKAPKLLIYAASTLQSGVPSRFSGSGSGTEFTLTISSLQPEDFATYYCQQLNSYPRTFGQGTKVEIKR | 12.7 nM | 0.022 s⁻¹ | 1.73e+06 M⁻¹ s⁻¹ |
| M0139-A04 (Fab, V domains shown) VH: EVQLLESGGGLVQPGGSLRLSCAASGFTFSHYPMTWVRQAPGKGLEWVSSIRPSGGNTGYADSVKGRFTISRDNSKNTLYLQMNSLRAEDTAVYYCARLTGYSSGWFWAYGMDVWGQGTTVTVSS VL: DIQMTQSPGTLSLSPGDRATLSCRASQSVSSSYLAWYQQKAGQAPRLLIYGAASRATGIPDRFSGSGSGTDFTLTISRLEREDFAVYYCQQYGSSPLITFGQGTRLEIKR | 12.2 nM | 0.00503 s⁻¹ | 411000 M⁻¹ s⁻¹ |
